Reference: US20210163536A1
Bridges are numbered along the chain shown (N, C = ends). [ ]: non-standard residue; d: D form.

How the values were obtained:
[1] = target: human melanocortin-3 receptor (human) (UniProt P41968); experiment: cell-based or functional assay
[2] = target: human melanocortin-4 receptor (human) (UniProt P32245); experiment: cell-based or functional assay
[3] = target: human melanocortin-1 receptor (human) (UniProt Q01726); experiment: competition with [125I]-NDP-alpha-MSH, CHO-K1 cell membranes
[4] = target: human melanocortin-3 receptor (human) (UniProt P41968); experiment: as above
[5] = target: human melanocortin-4 receptor (human) (UniProt P32245); experiment: as above

Chain of human melanocortin-4 receptor (human) (P32245 whole entry): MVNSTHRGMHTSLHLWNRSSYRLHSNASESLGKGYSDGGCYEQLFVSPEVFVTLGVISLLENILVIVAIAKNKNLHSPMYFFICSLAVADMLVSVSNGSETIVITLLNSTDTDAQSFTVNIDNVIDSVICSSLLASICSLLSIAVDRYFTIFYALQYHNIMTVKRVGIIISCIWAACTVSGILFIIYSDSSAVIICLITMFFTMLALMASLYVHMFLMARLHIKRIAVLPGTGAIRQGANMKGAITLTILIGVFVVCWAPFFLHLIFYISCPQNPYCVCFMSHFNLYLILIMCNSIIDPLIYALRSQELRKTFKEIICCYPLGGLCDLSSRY
Chain of human melanocortin-3 receptor (human) (P41968 whole entry): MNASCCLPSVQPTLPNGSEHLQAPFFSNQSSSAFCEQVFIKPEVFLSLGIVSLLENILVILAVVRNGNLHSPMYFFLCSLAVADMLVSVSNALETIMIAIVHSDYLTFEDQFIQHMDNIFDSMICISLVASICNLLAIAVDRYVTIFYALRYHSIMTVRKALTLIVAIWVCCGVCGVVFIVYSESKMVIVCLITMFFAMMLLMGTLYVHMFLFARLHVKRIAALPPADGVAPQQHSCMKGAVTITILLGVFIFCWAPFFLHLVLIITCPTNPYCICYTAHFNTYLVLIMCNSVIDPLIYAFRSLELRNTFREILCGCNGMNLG
Chain of human melanocortin-1 receptor (human) (Q01726 whole entry): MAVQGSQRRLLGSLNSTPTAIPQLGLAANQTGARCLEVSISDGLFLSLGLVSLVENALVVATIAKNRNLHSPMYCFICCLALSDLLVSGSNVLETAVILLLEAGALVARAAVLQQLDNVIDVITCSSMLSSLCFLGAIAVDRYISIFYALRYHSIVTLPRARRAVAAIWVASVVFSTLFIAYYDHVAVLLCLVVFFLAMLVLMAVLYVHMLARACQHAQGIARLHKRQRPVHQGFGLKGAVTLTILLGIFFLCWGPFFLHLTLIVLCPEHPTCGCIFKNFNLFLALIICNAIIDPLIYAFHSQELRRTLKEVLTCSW

EC50, intracellular cyclic AMP (cAMP) levels [1]: 22.3 nM | EC50, intracellular cyclic AMP (cAMP) levels [2]: 3.62 nM | Ki [3]: 72.6 nM | Ki [4]: 1920 nM | Ki [5]: 45.2 nM
B1: cyclo[Hydantoin(C(O)-(Glu-D-Ala))-His-D-Phe-Arg-Trp-Lys]-NH2 (peptide)
peptide: H[dF]RWK-NH2
modifications: lactam N-5; not fully specified (N-terminus); printed as cyclo[Hydantoin(C(O)-(Glu-D-Ala))-His-D-Phe-Arg-Trp-Lys]-NH2; also: hydantoin ring from Glu and D-Ala with C(O) joining their backbone nitrogens
